Results taken from patent publication US20190015518A1, “DRUG DELIVERY COMPOSITIONS AND METHODS” (priority 2016, published 2019).

Tests used:
[1] = system: A2058 (human melanoma) cells; assay: Anti-proliferative activity (Resazurin Blue, 72 hours); assay type: cell-based; conditions: mean ± S.E.M., cisplatin basis
Description: (§1) MDA-1986 (human head and neck squamous cell carcinoma), 4T1.2-neu (murine breast cancer cells), and A2058 (human melanoma) cells were maintained in Dulbecco's Modified Eagle Medium (DMEM, Corning, Manassas, Va.) with 4.5 g/L glucose, 4.5 g/L L-glutamine, and 10% fetal bovine serum in a humidified incubator at 37° C. and 5% CO2. Cells were seeded into 96-well plates (3,000 cells/well in 90 μL media) and allowed to attach overnight. […] Resazurin Blue (Acros Organics, Geel, Belgium) in PBS was added to each well (5-μM final concentration; 10-μL addition) and incubated at 37° C. for 4 hours. Fluorescence (λex 550 nm, λem 605 nm) was quantified with a SpectraMax Gemini XS plate-reader (Molecular Devices, Sunnyvale, Calif.). The relative growth of cells incubated with each compound concentration was normalized to vehicle-treated controls (100% proliferation). Data from at least three separate experiments performed in duplicate was analyzed using non-linear regression (GraphPad Prism 5.0) to generate IC50 values.

white blood cell DNA = assay: Pt-DNA adduct quantitation in white blood cell DNA; assay type: in vivo, rat; conditions: cisplatin i.v. 10 mg/kg; HA-Lys-Pt s.c. 10 mg/kg cisplatin basis; 10 mg/kg
Description: Whole blood was centrifuged (1500×g, 5 min., 4° C., no brake). Top layer (plasma) and middle layer (white blood cells) were transferred to new tubes. Plasma was frozen (−20° C.) until analysis. […] The white blood cell pellet was washed twice with cold PBS and re-suspended in 9 mL of white blood cell buffer (10-mM Tris, pH 7.4, 2.3% NaCl, 2-mM EDTA), and 900 μL of 1.1-M NH4HCO3, 900 μL of 10% SDS, and 75 μL of 2% Proteinase K were added and incubated at 42° C. overnight. Then, 3.3 mL of 5-M NaCl was added, samples shaken vigorously, and centrifuged twice (3200×g, 5 min, 4° C.), each time discarding the pellet. DNA was pelleted with 20 mL of ice-cold 100% ethanol and centrifuged (3200×g, 5 min, 4° C.); the DNA pellet was washed twice with 75% ethanol, re-suspended in water, and quantitated. DNA was digested in 1% HNO3 (800 μL total volume) overnight at 70° C. DNA samples were diluted 1:10 in 1% HNO3 and plasma samples were diluted 1:10,000 in 1% HNO3. Diluted samples were analyzed for Pt content using ICP-MS with a calibration curve from 1-1000 ppt.

[2] = system: MDA-1986 (human head and neck squamous cell carcinoma) cells; assay: Anti-proliferative activity (Resazurin Blue, 72 hours); assay type: cell-based; conditions: listed as HA-Lys-Pt 75 kDa
Description: as §1

[3] = Clinical chemistry of a healthy dog given 1.5 mg/kg on day 1 and 2.0 mg/kg on day 70, sub-mucosa; assay type: in vivo
Description: Before each dose, the dog was examined by clinical chemistry, hematology, and urinalysis. Additional examinations of clinical chemistry and hematology were performed on days 7, 14, and 42 after the first dose. Additional tests of urinalysis were performed on days 7 and 14 after the first dose. The potential drug-induced toxicities were monitored for 56 days after the second dose. Specifically, clinical chemistry and urinalysis were performed on days 7, 14, 21, and 56, and hematology was performed on days 7, 14, and 56 after the second dose to evaluate the tolerability and toxicity of the formulation.
Clinical chemistry examinations were performed at pre- and post-dose for both injections. The injections were given via the sub-mucosa in the mouth.

**Q.** Which results are given for “HA-cis-[Pt(NH3)2(N^α-Acetyl-L-Lysine)] [75HA-Lys-Pt]”?
**A.** IC50 [1]: 69.8 ± 7 µM; Pt-DNA adduct AUC (white blood cell DNA): 4730 pg Pt×h/μg DNA; IC50 ([2]; mean ± S.E.M., cisplatin basis): 39.8 ± 4.4 µM; IC50 ([2]; text b180): ~21 µM; ALP elevation ([3]; 2 mg/kg, 7-days post-dose): 0.7 fold; ALT elevation ([3]; 2 mg/kg, 7-days post-dose): 4.6 fold; AST elevation ([3]; 2 mg/kg, 7-days post-dose): 8.7 fold; ALP, higher than the pre-dose level ([3]; 2 mg/kg, 8-weeks post-dose): 0.27 fold; Alanine aminotransferase ([3]; 2 mg/kg, 7 days after): 330 U/L; Albumin ([3]; 2 mg/kg, 7 days after): 2.5 g/dL; Alkaline phosphatase ([3]; 2 mg/kg, 7 days after): 237 U/L; Aspartate aminotransferase ([3]; 2 mg/kg, 7 days after): 309 U/L; Calcium ([3]; 2 mg/kg, 7 days after): 9.3 mg/dL; Cholesterol ([3]; 2 mg/kg, 7 days after): 81 mg/dL; Creatine kinase ([3]; 2 mg/kg, 7 days after): 105 U/L; Creatinine ([3]; 2 mg/kg, 7 days after): 0.25 mg/dL; Gamma glutamyltransferase ([3]; 2 mg/kg, 7 days after): 0 U/L; Globulin ([3]; 2 mg/kg, 7 days after): 2.9 g/dL; Glucose ([3]; 2 mg/kg, 7 days after): 83 mg/dL; Inorganic Phosphorus ([3]; 2 mg/kg, 7 days after): 2.8 mg/dL; Total Bilirubin ([3]; 2 mg/kg, 7 days after): 0.3 mg/dL; Total Protein ([3]; 2 mg/kg, 7 days after): 5.4 g/dL; Triglyceride ([3]; 2 mg/kg, 7 days after): 32 mg/dL; Urea Nitrogen ([3]; 2 mg/kg, 7 days after): 11 mg/dL; Alanine aminotransferase ([3]; 2 mg/kg, 14 days after): 223 U/L; Albumin ([3]; 2 mg/kg, 14 days after): 2.4 g/dL; Alkaline phosphatase ([3]; 2 mg/kg, 14 days after): 249 U/L; Calcium ([3]; 2 mg/kg, 14 days after): 8.6 mg/dL; Cholesterol ([3]; 2 mg/kg, 14 days after): 75 mg/dL; Creatine kinase ([3]; 2 mg/kg, 14 days after): 143 U/L; Creatinine ([3]; 2 mg/kg, 14 days after): 0.3 mg/dL; Gamma glutamyltransferase ([3]; 2 mg/kg, 14 days after): 0 U/L; Glucose ([3]; 2 mg/kg, 14 days after): 76 mg/dL; Inorganic Phosphorus ([3]; 2 mg/kg, 14 days after): 3.4 mg/dL; Total Bilirubin ([3]; 2 mg/kg, 14 days after): 0.1 mg/dL; Total Protein ([3]; 2 mg/kg, 14 days after): 5.5 g/dL; Triglyceride ([3]; 2 mg/kg, 14 days after): 43 mg/dL; Urea Nitrogen ([3]; 2 mg/kg, 14 days after): 14 mg/dL; Alanine aminotransferase ([3]; 2 mg/kg, 21 days after): 198 U/L; Albumin ([3]; 2 mg/kg, 21 days after): 2.7 g/dL; Alkaline phosphatase ([3]; 2 mg/kg, 21 days after): 219 U/L; Aspartate aminotransferase ([3]; 2 mg/kg, 21 days after): 129 U/L; Calcium ([3]; 2 mg/kg, 21 days after): 9.3 mg/dL; Cholesterol ([3]; 2 mg/kg, 21 days after): 70 mg/dL; Creatinine ([3]; 2 mg/kg, 21 days after): 0.33 mg/dL; Gamma glutamyltransferase ([3]; 2 mg/kg, 21 days after): 0 U/L; Glucose ([3]; 2 mg/kg, 21 days after): 64 mg/dL; Inorganic Phosphorus ([3]; 2 mg/kg, 21 days after): 3.9 mg/dL; Total Bilirubin ([3]; 2 mg/kg, 21 days after): 0.2 mg/dL; Total Protein ([3]; 2 mg/kg, 21 days after): 5.8 g/dL; Triglyceride ([3]; 2 mg/kg, 21 days after): 39 mg/dL; Urea Nitrogen ([3]; 2 mg/kg, 21 days after): 14 mg/dL; Alanine aminotransferase ([3]; 2 mg/kg, 56 days after): 220 U/L; Albumin ([3]; 2 mg/kg, 56 days after): 3.0 g/dL; Alkaline phosphatase ([3]; 2 mg/kg, 56 days after): 173 U/L; Aspartate aminotransferase ([3]; 2 mg/kg, 56 days after): 138 U/L; Calcium ([3]; 2 mg/kg, 56 days after): 9.7 mg/dL; Cholesterol ([3]; 2 mg/kg, 56 days after): 86 mg/dL; Creatine kinase ([3]; 2 mg/kg, 56 days after): 117 U/L; Creatinine ([3]; 2 mg/kg, 56 days after): 0.3 mg/dL; Gamma glutamyltransferase ([3]; 2 mg/kg, 56 days after): 0 U/L; Globulin ([3]; 2 mg/kg, 56 days after): 3.3 g/dL; Glucose ([3]; 2 mg/kg, 56 days after): 73 mg/dL; Inorganic Phosphorus ([3]; 2 mg/kg, 56 days after): 2.5 mg/dL; Total Bilirubin ([3]; 2 mg/kg, 56 days after): 0.4 mg/dL; Total Protein ([3]; 2 mg/kg, 56 days after): 6.3 g/dL; Triglyceride ([3]; 2 mg/kg, 56 days after): 42 mg/dL; Urea Nitrogen ([3]; 2 mg/kg, 56 days after): 14 mg/dL; Alanine aminotransferase ([3]; […], 7 days after): 36 U/L; Albumin ([3]; […], 7 days after): 2.4 g/dL; Alkaline phosphatase ([3]; […], 7 days after): 132 U/L; Aspartate aminotransferase ([3]; […], 7 days after): 67 U/L; Calcium ([3]; […], 7 days after): 8.8 mg/dL; Cholesterol ([3]; […], 7 days after): 89 mg/dL; Creatine kinase ([3]; […], 7 days after): 93 U/L; Creatinine ([3]; […], 7 days after): 0.33 mg/dL; Globulin ([3]; […], 7 days after): 2.6 g/dL; Glucose ([3]; […], 7 days after): 70 mg/dL; Inorganic Phosphorus ([3]; […], 7 days after): 3.3 mg/dL; Total Bilirubin ([3]; […], 7 days after): 0.1 mg/dL; Total Protein ([3]; […], 7 days after): 5.0 g/dL; Triglyceride ([3]; […], 7 days after): 34 mg/dL; Urea Nitrogen ([3]; […], 7 days after): 13 mg/dL; Alanine aminotransferase ([3]; […], 14 days): 57 U/L; Albumin ([3]; […], 14 days): 2.4 g/dL; Alkaline phosphatase ([3]; […], 14 days): 116 U/L; Aspartate aminotransferase ([3]; […], 14 days): 89 U/L; Calcium ([3]; […], 14 days): 9.4 mg/dL; Cholesterol ([3]; […], 14 days): 97 mg/dL; Creatine kinase ([3]; […], 14 days): 207 U/L; Creatinine ([3]; […], 14 days): 0.35 mg/dL; Globulin ([3]; […], 14 days): 2.8 g/dL; Glucose ([3]; […], 14 days): 80 mg/dL; Inorganic Phosphorus ([3]; […], 14 days): 5.5 mg/dL; Total Bilirubin ([3]; […], 14 days): 0.0 mg/dL; Total Protein ([3]; […], 14 days): 5.2 g/dL; Triglyceride ([3]; […], 14 days): 38 mg/dL; Urea Nitrogen ([3]; […], 14 days): 19 mg/dL; Alanine aminotransferase ([3]; […], 42 days): 74 U/L; Albumin ([3]; […], 42 days): 3.0 g/dL; Alkaline phosphatase ([3]; […], 42 days): 125 U/L; Aspartate aminotransferase ([3]; […], 42 days): 39 U/L; Creatine kinase ([3]; […], 42 days): 159 U/L; Globulin ([3]; […], 42 days): 2.5 g/dL; Total Bilirubin ([3]; […], 42 days): 0.0 mg/dL; Total Protein ([3]; […], 42 days): 5.5 g/dL
